Target: dipeptides with a proline at the second position

B1: aminopeptidase T from Thermus aquaticus, with a Cys added at the N-terminus and a 6xHis at the C-terminus (protein)
chain: MCDAFTENLNKLAELAIRVGLNLEEGQEIVATAPIEAVDFVRLLAEKAYENGASLFTVLYGDNLIARKRLALVPEAHLDRAPAWLYEGMAKAFHEGAARLAVSGNDPKALEGLPPERVGRAQQAQSRAYRPTLSAITEFVTNWTIVPFAHPGWAKAVFPGLPEEEAVQRLWQAIFQATRVDQEDPVAAWEAHNRVLHAKVAFLNEKRFHALHFQGPGTDLTVGLAEGHLWQGGATPTKKGRLCNPNLPTEEVFTAPHRERVEGVVRASRPLALSGQLVEGLWARFEGGVAVEVGAEKGEEVLKKLLDTDEGARRLGEVALVPADNPIAKTGLVFFDTLFDENAASHIAFGQAYAENLEGRPSGEEFRRRGGNESMVHVDWMIGSEEVDVDGLLEDGTRVPLMRRGRWVIHHHHHH
For B1, the “aminopeptidase assay, cleavage of the N-terminal amino acid” value was “TaqAPT cleaves dipeptides even with a proline at the second position”.
